The source of these data is the supplement of paper PMC5998384.

Data set [1] deals with HeLa Kyoto. The data set can be described thus: melting temperature (median over replicates), in situ; higher = more thermally stable.
For data set [2], the system named is HeLa Kyoto. The experiment in a line: solubility in G1/S (NP-40 vs SDS abundance) (log2 ratio); higher = more soluble. The note with it: cell cycle stage: G1/S.
Data set [3] has as its system HeLa Kyoto. The experiment in a line: thermal stability score vs G1/S (z-score of summed log2 fold changes over temperatures); higher = more thermally stable than in G1/S.
The subject of data set [4] is HeLa Kyoto. The data set can be described thus: solubility change mitosis vs G1/S (difference of NP-40 vs SDS log2 ratios) (log2 ratio difference); higher = more soluble in mitosis.
[5] abbreviates: cell cycle stage: early G1 (4.5 h after nocodazole release).
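Throughout, for melting temperature (median over replicates), in situ: HeLa Kyoto cells synchronized by double thymidine or nocodazole block, proteins quantified by TMT10plex mass spectrometry, three independent biological replicates.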
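Throughout, for solubility change mitosis vs G1/S (difference of NP-40 vs SDS log2 ratios): synchronized HeLa Kyoto cells (double thymidine block for G1/S, nocodazole release for mitosis), protein amounts in NP-40 versus SDS lysates quantified by mass spectrometry, three biological replicates.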
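Throughout, for solubility in G1/S (NP-40 vs SDS abundance): HeLa Kyoto cells arrested at G1/S by double thymidine block, proteins quantified by TMT10plex mass spectrometry in mild NP-40 versus SDS extracts, three biological replicates.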
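Throughout, for thermal stability score vs G1/S (z-score of summed log2 fold changes over temperatures): synchronized HeLa Kyoto cells, proteins quantified by TMT10plex mass spectrometry, three biological replicates, mitosis taken 0.5 h after nocodazole release, G1/S directly after double thymidine block.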

Regarding “MNIRNARPEDLMNMQHCNLLCLPENYQMKYYFYHGLSWPQLSYIAEDENGKIVGYVLAKMEEDPDDVPHGHITSLAVKRSHRRLGLAQKLMDQASRAMIENFNAKYVSLHVRKSNRAALHLYSNTLNFQISEVEPKYYADGEDAYAMKRDLTQMADELRRHLELKEKGRHVVLGAIENKVESKGNSPPSSGEACREEKGLAAEDSGGDSKDLSEVSETTESTDVKDSSEASDSAS [NAA10]”, the melting temperature with HeLa Kyoto [1] (cell cycle stage: G1/S) was determined as 53.4 °C; with HeLa Kyoto [1] (cell cycle stage: mitosis), 53.1 °C. In the data set on HeLa Kyoto [2], the “solubility in G1/S (log2)” value stood at 0.263. In addition, the values for the thermal stability score in the data set with HeLa Kyoto [3] (setting [5]) and with HeLa Kyoto [3] (cell cycle stage: mitosis) were -0.13 and -1.02, respectively. In the data set on HeLa Kyoto [4], the “solubility change mitosis (log2)” value is -0.0427.
On to “MNIVVEFFVVTFKVLWAFVLAAARWLVRPKEKSVAGQVCLITGAGSGLGRLFALEFARRRALLVLWDINTQSNEETAGMVRHIYRDLEAADAAALQAGNGEEEILPHCNLQVFTYTCDVGKRENVYLTAERVRKEVGEVSVLVNNAGVVSGHHLLECPDELIERTMMVNCHAHFWTTKAFLPTMLEINHGHIVTVASSLGLFSTAGVEDYCASKFGVVGFHESLSHELKAAEKDGIKTTLVCPYLVDTGMFRGCRIRKEIEPFLPPLKPDYCVKQAMKAILTDQPMICTPRLMYIVTFMKSILPFEAVVCMYRFLGADKCMYPFIAQRKQATNNNEAKNGI [RDH10]”, for which the melting temperature in the data set on HeLa Kyoto [1] (cell cycle stage: G1/S) came to 53.4 °C; with HeLa Kyoto [1] (cell cycle stage: mitosis) it was 52.9 °C. For the same sequence, the “solubility in G1/S (log2)” value with HeLa Kyoto [2] was -0.308. Moreover, the thermal stability score with HeLa Kyoto [3] (setting [5]) was -3.18; in the data set on HeLa Kyoto [3] (cell cycle stage: mitosis), -3.77. For the same sequence, the “solubility change mitosis (log2)” value with HeLa Kyoto [4] is -0.104.
“MNKKKKPFLGMPAPLGYVPGLGRGATGFTTRSDIGPARDANDPVDDRHAPPGKRTVGDQMKKNQAADDDDEDLNDTNYDEFNGYAGSLFSSGPYEKDDEEADAIYAALDKRMDERRKERREQREKEEIEKYRMERPKIQQQFSDLKRKLAEVTEEEWLSIPEVGDARNKRQRNPRYEKLTPVPDSFFAKHLQTGENHTSVDPRQTQFGGLNTPYPGGLNTPYPGGMTPGLMTPGTGELDMRKIGQARNTLMDMRLSQVSDSVSGQTVVDPKGYLTDLNSMIPTHGGDINDIKKARLLLKSVRETNPHHPPAWIASARLEEVTGKLQVARNLIMKGTEMCPKSEDVWLEAARLQPGDTAKAVVAQAVRHLPQSVRIYIRAAELETDIRAKKRVLRKALEHVPNSVRLWKAAVELEEPEDARIMLSRAVECCPTSVELWLALARLETYENARKVLNKARENIPTDRHIWITAAKLEEANGNTQMVEKIIDRAITSLRANGVEINREQWIQDAEECDRAGSVATCQAVMRAVIGIGIEEEDRKHTWMEDADSCVAHNALECARAIYAYALQVFPSKKSVWLRAAYFEKNHGTRESLEALLQRAVAHCPKAEVLWLMGAKSKWLAGDVPAARSILALAFQANPNSEEIWLAAVKLESENDEYERARRLLAKARSSAPTARVFMKSVKLEWVQDNIRAAQDLCEEALRHYEDFPKLWMMKGQIEEQKEMMEKAREAYNQGLKKCPHSTPLWLLLSRLEEKIGQLTRARAILEKSRLKNPKNPGLWLESVRLEYRAGLKNIANTLMAKALQECPNSGILWSEAIFLEARPQRRTKSVDALKKCEHDPHVLLAVAKLFWSQRKITKAREWFHRTVKIDSDLGDAWAFFYKFELQHGTEEQQEEVRKRCESAEPRHGELWCAVSKDIANWQKKIGDILRLVAGRIKNTF [PRPF6]”: the melting temperature with HeLa Kyoto [1] (cell cycle stage: G1/S) is 46.8 °C; in the data set with HeLa Kyoto [1] (cell cycle stage: mitosis) it was 48.1 °C. Also, the “solubility in G1/S (log2)” value with HeLa Kyoto [2] was -0.849. The results for the thermal stability score in the data set with HeLa Kyoto [3] (setting [5]) and in the data set on HeLa Kyoto [3] (cell cycle stage: mitosis) were 1.08 and 5.32, respectively. In addition, the “solubility change mitosis (log2)” value in the data set with HeLa Kyoto [4] was found to be 0.428.
In the case of “MNLASQSGEAGAGQLLFANFNQDNTEVKGASRAAGLGRRAVVWSLAVGSKSGYKFFSLSSVDKLEQIYECTDTEDVCIVERLFSSSLVAIVSLKAPRKLKVCHFKKGTEICNYSYSNTILAVKLNRQRLIVCLEESLYIHNIRDMKVLHTIRETPPNPAGLCALSINNDNCYLAYPGSATIGEVQVFDTINLRAANMIPAHDSPLAALAFDASGTKLATASEKGTVIRVFSIPEGQKLFEFRRGVKRCVSICSLAFSMDGMFLSASSNTETVHIFKLETVKEKPPEEPTTWTGYFGKVLMASTSYLPSQVTEMFNQGRAFATVRLPFCGHKNICSLATIQKIPRLLVGAADGYLYMYNLDPQEGGECALMKQHRLDGSLETTNEILDSASHDCPLVTQTYGAAAGKGTYVPSSPTRLAYTDDLGAVGGACLEDEASALRLDEDSEHPPMILRTD [WIPI2]”, the melting temperature is 50.4 °C in the data set with HeLa Kyoto [1] (cell cycle stage: G1/S) and 51.1 °C with HeLa Kyoto [1] (cell cycle stage: mitosis). Further, the “solubility in G1/S (log2)” value in the data set with HeLa Kyoto [2] came out at 0.0209. Moreover, the thermal stability score was -0.953 in the data set with HeLa Kyoto [3] (setting [5]) and -0.659 with HeLa Kyoto [3] (cell cycle stage: mitosis). Also, the “solubility change mitosis (log2)” value in the data set with HeLa Kyoto [4] was -0.0675.
As to “MNPAAEAEFNILLATDSYKVTHYKQYPPNTSKVYSYFECREKKTENSKLRKVKYEETVFYGLQYILNKYLKGKVVTKEKIQEAKDVYKEHFQDDVFNEKGWNYILEKYDGHLPIEIKAVPEGFVIPRGNVLFTVENTDPECYWLTNWIETILVQSWYPITVATNSREQKKILAKYLLETSGNLDGLEYKLHDFGYRGVSSQETAGIGASAHLVNFKGTDTVAGLALIKKYYGTKDPVPGYSVPAAEHSTITAWGKDHEKDAFEHIVTQFSSVPVSVVSDSYDIYNACEKIWGEDLRHLIVSRSTQAPLIIRPDSGNPLDTVLKVLEILGKKFPVTENSKGYKLLPPYLRVIQGDGVDINTLQEIVEGMKQKMWSIENIAFGSGGGLLQKLTRDLLNCSFKCSYVVTNGLGINVFKDPVADPNKRSKKGRLSLHRTPAGNFVTLEEGKGDLEEYGQDLLHTVFKNGKVTKSYSFDEIRKNAQLNIELEAAHH [NAMPT]”, the values for the melting temperature with HeLa Kyoto [1] (cell cycle stage: G1/S) and with HeLa Kyoto [1] (cell cycle stage: mitosis) were 56.9 °C and 55.9 °C, respectively. The “solubility in G1/S (log2)” value in the data set with HeLa Kyoto [2] was 0.264. Moreover, the results for the thermal stability score with HeLa Kyoto [3] (setting [5]) and with HeLa Kyoto [3] (cell cycle stage: mitosis) were -1.65 and -1.17, respectively. Also, in the data set with HeLa Kyoto [4], the “solubility change mitosis (log2)” value is -0.0826.
